Experimental data published in patent US20160264649A1.

Tests used:
Assay in all cases: cell-based or functional assay
[1] = target: HIV-1 92RW024 Env (HIV-1)
[2] = target: HIV-1 MGRM-A-011 Env (HIV-1)
[3] = target: HIV-1 MGRM-A-001 Env (HIV-1)
[4] = target: HIV-1 MGRM-A-008 Env (HIV-1)
[5] = target: HIV-1 92RW026 Env (HIV-1)
[6] = target: HIV-1 92UG037 Env (HIV-1)
[7] = target: HIV-1 98CN009 Env on pseudovirus (HIV-1)
[8] = target: HIV-1 IAVI-C3 Env (HIV-1)
[9] = target: HIV-1 92TH021 Env (HIV-1)
[10] = target: HIV-1 VLGCB3 Env on pseudovirus (HIV-1)
[11] = target: HIV-1 MGRM-D-024 Env (HIV-1)
[12] = target: HIV-1 MGRM-G-024 Env (HIV-1)
[13] = target: HIV-1 MGRM-D-022 Env (HIV-1)
[14] = target: HIV-1 MGRM-C-025 Env on pseudovirus (HIV-1)
[15] = target: HIV-1 MGRM-D-014 Env (HIV-1)
[16] = target: HIV-1 MGRM-D-003 Env (HIV-1)
[17] = target: HIV-1 MGRM-F1-017 Env (HIV-1)
[18] = target: HIV-1 LAVI_C22 Env on pseudovirus (HIV-1)
[19] = target: HIV-1 MGRM-AE-003 Env (HIV-1)
[20] = target: HIV-1 MGRM-D-002 Env (HIV-1)
[21] = target: HIV-1 CAAN.A2 (Acute) Env on pseudovirus (HIV-1)
[22] = target: HIV-1 MGRM-F1-023 Env (HIV-1)
[23] = target: HIV-1 94UG114 Env (HIV-1)
[24] = target: HIV-1 MGRM-C-008 Env on pseudovirus (HIV-1)
[25] = target: HIV-1 MGRM-C-022 Env on pseudovirus (HIV-1)
[26] = target: HIV-1 MGRM-AG-005 Env (HIV-1)
[27] = target: HIV-1 MGRM-AG-012 Env (HIV-1)
[28] = target: HIV-1 MGRM-AG-006 Env (HIV-1)
[29] = target: HIV-1 MGRM-D-019 Env (HIV-1)
[30] = target: HIV-1 MGRM-F1-020 Env (HIV-1)
[31] = target: HIV-1 MGRM-D-028 Env (HIV-1)
[32] = target: HIV-1 NL43 Env on pseudovirus (HIV-1)
[33] = target: HIV-1 MGRM-Chronic-B-017 Env on pseudovirus (HIV-1)
[34] = target: HIV-1 MGRM-D-020 Env (HIV-1)
[35] = target: HIV-1 MGRM-C-013 Env on pseudovirus (HIV-1)
[36] = target: HIV-1 93MW959 Env on pseudovirus (HIV-1)
[37] = target: HIV-1 MGRM-Chronic-B-002 Env on pseudovirus (HIV-1)
[38] = target: HIV-1 MGRM-G-016 Env (HIV-1)
[39] = target: HIV-1 APV_6 Env on pseudovirus (HIV-1)
[40] = target: HIV-1 97ZA012 Env on pseudovirus (HIV-1)
aMLV envelope = target: aMLV envelope
[41] = target: HIV-1 APV_13 Env on pseudovirus (HIV-1)
[42] = target: HIV-1 92BR020 Env on pseudovirus (HIV-1)
[43] = target: HIV-1 LAVI_C3 Env on pseudovirus (HIV-1)
[44] = target: HIV-1 MGRM-G-025 Env (HIV-1)
[45] = target: HIV-1 MGRM-F1-018 Env (HIV-1)
[46] = target: HIV-1 MGRM-C-012 Env on pseudovirus (HIV-1)
[47] = target: HIV-1 MGRM-C-010 Env on pseudovirus (HIV-1)
[48] = target: HIV-1 MGRM-AG-013 Env (HIV-1)
[49] = target: HIV-1 MGRM-D-013 Env (HIV-1)
[50] = target: HIV-1 SF162 Env on pseudovirus (HIV-1) (UniProt P19550)
[51] = target: HIV-1 MGRM-D-012 Env (HIV-1)
[52] = target: HIV-1 MGRM-C-009 Env on pseudovirus (HIV-1)

1495_C14 (PGC14) (antibody)
40 µg/mL: IC50 [32]
23 µg/mL: IC50 [39]
29 µg/mL: IC50 (µg/ml), pseudovirus neutralization [20]
43 µg/mL: IC50 [7]
25 µg/mL: IC50 [18]
21 µg/mL: IC50 [10]
< 0.0025 µg/mL: IC50 [50]
4 µg/mL: IC50 [42]
12 µg/mL: IC50 [43]
48 µg/mL: IC50 (µg/ml), pseudovirus neutralization [15]
> 50 µg/mL: neutralization IC50 [1] | neutralization IC50 [2] | neutralization IC50 [3] | neutralization IC50 [4] | neutralization IC50 [5] | neutralization IC50 [6] | neutralization IC50 [8] | IC50 (µg/ml), pseudovirus neutralization [9] | neutralization IC50 [9] | IC50 (µg/ml), pseudovirus neutralization [11] | IC50 (µg/ml), pseudovirus neutralization [12] | IC50 (µg/ml), pseudovirus neutralization [13] | IC50 [14] | IC50 (µg/ml), pseudovirus neutralization [16] | IC50 (pseudovirus neutralization) [17] | IC50 (µg/ml), pseudovirus neutralization [19] | IC50 [21] | IC50 (pseudovirus neutralization) [22] | IC50 (µg/ml), pseudovirus neutralization [23] | IC50 [24] | IC50 [25] | IC50 (µg/ml), pseudovirus neutralization [26] | IC50 (µg/ml), pseudovirus neutralization [27] | IC50 (µg/ml), pseudovirus neutralization [28] | IC50 (µg/ml), pseudovirus neutralization [29] | IC50 (pseudovirus neutralization) [30] | IC50 (µg/ml), pseudovirus neutralization [31] | IC50 [33] | IC50 (µg/ml), pseudovirus neutralization [34] | IC50 [35] | IC50 [36] | IC50 [37] | IC50 (µg/ml), pseudovirus neutralization [38] | IC50 [40] | neutralization IC50 (aMLV envelope) | IC50 [41] | IC50 (µg/ml), pseudovirus neutralization [44] | IC50 (pseudovirus neutralization) [45] | IC50 [46] | IC50 [47] | IC50 (µg/ml), pseudovirus neutralization [48] | IC50 (µg/ml), pseudovirus neutralization [49] | IC50 (µg/ml), pseudovirus neutralization [51] | IC50 [52]

b12 (antibody)
7.64 µg/mL: IC50 [18]
5.92 µg/mL: IC50 (µg/ml), pseudovirus neutralization [11]
0.02 µg/mL: IC50 [50]
0.86 µg/mL: IC50 [37]
0.78 µg/mL: IC50 (µg/ml), pseudovirus neutralization [31]
1.52 µg/mL: IC50 [7]
5 µg/mL: neutralization IC50 [8]
0.13 µg/mL: IC50 (µg/ml), pseudovirus neutralization [51]
2.38 µg/mL: IC50 (µg/ml), pseudovirus neutralization [12]
0.15 µg/mL: IC50 [10]
0.94 µg/mL: IC50 [43]
17.6 µg/mL: IC50 (µg/ml), pseudovirus neutralization [13]
9.99 µg/mL: neutralization IC50 [9]
2.59 µg/mL: IC50 [33]
4.01 µg/mL: neutralization IC50 [2]
0.17 µg/mL: IC50 [32]
1.51 µg/mL: IC50 [24]
10.4 µg/mL: IC50 (µg/ml), pseudovirus neutralization [27]
> 50 µg/mL: neutralization IC50 [1] | neutralization IC50 [3] | neutralization IC50 [4] | neutralization IC50 [5] | neutralization IC50 [6] | neutralization IC90 [9] | IC50 [14] | IC50 (µg/ml), pseudovirus neutralization [15] | IC50 (µg/ml), pseudovirus neutralization [16] | IC50 (pseudovirus neutralization) [17] | IC50 (µg/ml), pseudovirus neutralization [19] | IC50 (µg/ml), pseudovirus neutralization [20] | IC50 [21] | IC50 (pseudovirus neutralization) [22] | IC50 (µg/ml), pseudovirus neutralization [23] | IC50 [25] | IC50 (µg/ml), pseudovirus neutralization [26] | IC50 (µg/ml), pseudovirus neutralization [28] | IC50 (µg/ml), pseudovirus neutralization [29] | IC50 (pseudovirus neutralization) [30] | IC50 (µg/ml), pseudovirus neutralization [34] | IC50 [35] | IC50 [36] | IC50 (µg/ml), pseudovirus neutralization [38] | IC50 [39] | IC50 [40] | neutralization IC50 (aMLV envelope) | neutralization IC90 (aMLV envelope) | IC50 [41] | IC50 [42] | IC50 (µg/ml), pseudovirus neutralization [44] | IC50 (pseudovirus neutralization) [45] | IC50 [46] | IC50 [47] | IC50 (µg/ml), pseudovirus neutralization [48] | IC50 (µg/ml), pseudovirus neutralization [49] | IC50 [52]
